Assay results as given in paper PMC5454392, “Selective BET bromodomain inhibition as an antifungal therapeutic strategy” (Nature Communications, 2017).
Square brackets hold non-standard residues; d marks the D form. Ends that are not written are not given here. Arg(Me2s) = CN=C(NC)NCCC[C@H](N)C(=O)O; Lys(Me2) = CN(C)CCCC[C@H](N)C(=O)O; pS = N[C@@H](COP(=O)(O)O)C(=O)O; Me2a = not defined here; me2a = not defined here

T1: CaBdf1 BD1 (GST-tagged, wild-type) (Candida albicans (strain SC5314 / ATCC …, UniProt Q5A4W8))
T1 chain: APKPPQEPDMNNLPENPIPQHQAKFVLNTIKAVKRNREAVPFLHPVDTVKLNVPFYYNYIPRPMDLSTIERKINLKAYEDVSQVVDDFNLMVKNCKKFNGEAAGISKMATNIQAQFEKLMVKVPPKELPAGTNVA

T2: CaBdf1 BD2 (GST-tagged, wild-type) (Candida albicans (strain SC5314 / ATCC …, UniProt Q5A4W8))
T2 chain: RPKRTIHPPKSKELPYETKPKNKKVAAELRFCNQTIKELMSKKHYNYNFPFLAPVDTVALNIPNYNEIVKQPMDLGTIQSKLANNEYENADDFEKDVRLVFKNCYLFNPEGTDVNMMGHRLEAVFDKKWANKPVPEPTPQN


Key:
[1] = target: T1, CaBdf1 BD1 (GST-tagged, wild-type); experiment: histone peptide array (Active Motif MODified), 1 uM GST-tagged bromodomain, anti-GST detection, normalized mean intensity
[2] = target: T2, CaBdf1 BD2 (GST-tagged, wild-type); experiment: as above

| Binder | binding score [1] | binding score [2] |
| --- | --- | --- |
| AR(Me2a)TK(Ac)QTAR(Me2a)K(Ac)STGGKAPRKQ (reading uncertain) | 0.0413 | 0.0107 |
| ARTK(Me3)QTAR(Me2a)K(Ac)STGGKAPRKQ (reading uncertain) | 0.0359 | 0.00888 |
| ARTK(me2)QTAR(me2a)K(me2)STGGKAPRKQ (reading uncertain) | 0.000725 | 0.00259 |
| SGRGKGGKGLGKGGAKRHR (S G R G Kac G G Kac G L G Kac G G A K R H R) | 0.0729 | 0.179 |
| ARTKQTARKSTGGKAPRKQ (A Rme2s T Kme2 Q T A Rme2s Kme1 S T G G K A P R K Q) | 0.00544 | 0.00407 |
| PRKQLATKAAR(Me2s)K(Me2)SAPATGG | 0.00254 | 0.00222 |
| ARTKQTARKSTGGKAPRKQ (A R T K Q T A R Kac S T G G K A P R K Q) | 0.0087 | 0.0037 |
| ARTKQTARKSTGGKAPRKQ (A R T K Q T A Rme2a K S T G G K A P R K Q) | 0.00326 | 0.00222 |
| PRKQLATKAARK(Me3)SAPATGG | 0.00616 | 0.00851 |
| SGRGKGGKGLGKGGAKRHR (pS G R G K G G K G L G K G G A K R H R) | 0.00471 | 0.00444 |
| SGRGKGGKGLGKGGAKRHR (S G Rme2s G K G G K G L G K G G A K R H R) | 0.00399 | 0.00666 |
| ARTKQTARKSTGGKAPRKQ (A Rme2a T Kac Q T A Rme2s Kme2 S T G G K A P R K Q) | 0.00616 |  |
| SGRGKGGKGLGKGGAKRHR (S G Rme2s G K G G Kac G L G K G G A K R H R) | 0.0152 | 0.00777 |
| PDPAK(Ac)SAPAPKKG[pS]KKAVT [H2B 1-19] | 0.00689 | 0.00074 |
| AR(me2a)TK(Ac)QTAR(me2a)K(me2)STGGKAPRKQ (reading uncertain) |  | 0.00703 |
| SGRGKGGKGLGKGGAKRHR (S G R G K G G Kac G L G K G G A Kac R H R) | 0.0228 | 0.00999 |
| A[Arg(Me2s)]T[Lys(Me2)]QTARKSTGGKAPRKQ | 0.0029 | 0 |
| ARTKQTARKSTGGKAPRKQ (A R T K Q T A R K S pT G G Kac A P R K Q) |  | 0.00999 |
| ARTK(Me2)QTARKSTGGKAPRKQ | 0.00181 | 0.00148 |
| RKSAPATGGVKKPHRYRPG (R K S A P A T G G V Kac K P H R Y R P G) [H3 26-45] | 0.0344 | 0.0122 |
| ARTKQTARKSTGGKAPRKQ (A Rme2a T Kme1 Q T A R Kme2 S T G G K A P R K Q) | 0.00326 | 0.0037 |
| ARTKQTARKSTGGKAPRKQ (A Rme2a T Kme1 Q T A Rme2a K S T G G K A P R K Q) | 0.00435 | 0.00259 |
